The target in this assay is NG19 (Non-Glycosylated protein of 19 kDa, S371 to F541 of the SARS-CoV-2 Spike protein RBD) (SARS-CoV-2) (UniProt P0DTC2). The assay is described as follows: Tricine-SDS-PAGE under non-reducing conditions.

The source of these data is article PMC8402574.

What is called stoichiometry N is the number of molecules, sites or subunits per partner or assembly.

With “NG19 (Non-Glycosylated protein of 19 kDa, S371 to F541 of the SARS-CoV-2 Spike protein RBD) (from UniProt P0DTC2 371-541) (domain or fragment)”, the stoichiometry N was found to be 2.
